Reference: paper PMC9674830 (2022)
Positions of bridges follow the written chain, without caps; N, C: chain ends. Non-standard residues stand in square brackets, D forms with d. No end group written: not given here. pentenylalanine = pentenylalanine, unnatural amino acid di-substituted at Cα, crosslinked by ring-closing metathesis

B1: peptide (P3-7)2 (peptide)
chain: KKPGASLAALQALQALQAAQAAKKY
B2: AR-WHTLF peptide (peptide)
chain: SAAASSSWHTLFTAEEGQLYG
B3: C-terminal domain of subunit 1 of the general transcription regulator TFIIF (RAP74-CTD) (domain or fragment)
chain: GDVQVTEDAVRRYLTRKPMTTKDLLKKFQTKKTGLSSEQTVNVLAQILKRLNPERKMINDKMHFSLKE
B4: peptide (P3-7)3 (peptide)
chain: KKPGASLAALQALQALQALQALQAAQAAKKY
B5: peptide γ (designed binder)
chain: KKPGASLSWLQLFQEEQAAQAAKK
B6: peptide δ_(ctrl) (peptide)
chain: KKPGASAAAAQEAQLAQLAQELQAAQAAKKY
B7: peptide δ (designed binder)
chain: KKPGASLAALQELQLLQLLQELQAAQAAKKY
B8: peptide δ_(Stpl) (peptide)
chain: KKPGASAAAAQE[pentenylalanine]QLA[pentenylalanine]LAQELQAAQAAKKY
modifications: staple 13-17
B9: peptide γ_(Stpl) (peptide)
chain: KKPGASASW[pentenylalanine]QLF[pentenylalanine]EEQAAQAAKK
modifications: staple 10-14

How the values were obtained:
[1] = molecular target: B3; assay: NMR
γCtrl = assay: NMR
[2] = molecular target: B3; assay: ITC

B1
Kd [1]: > 1000 µM

B2
Kd [1]: > 1000 µM

B3
Kd (γCtrl): > 1000 µM

B4
Kd [1]: > 1000 µM

B5
Kd [1]: 626 µM

B6
Kd [1]: > 1000 µM

B7
Kd [2]: 256 µM

B8
Kd [1]: > 1000 µM

B9
Kd [1]: 202 µM
